Among the data in article PMC5698441, “Molecular basis of AKAP79 regulation by calmodulin” (Nature Communications, 2017) are half-maximal CaM concentration (KCaM) for activation of phosphatase activity against a phosphorylated RII peptide values, retold here.

The target of assay [1] is calcineurin, WT (UniProt Q08209).
The target of assay [2] is calcineurin I396A/I400A (UniProt Q08209).

For the substance “human CaM, untagged (pET28-a) (from UniProt P0DP23 1-149) (natural protein)”, the half-maximal CaM concentration (KCaM) for activation of phosphatase activity against a phosphorylated RII peptide is 30 nM in assay [1] and 670 nM in assay [2].
